Reference: publication PMC6939996 (Nature, 2019)

B1: Snu71 (in the purified U1 snRNP of the Ubc4 E complex) (natural protein, S. cerevisiae, UniProt P53207 1-620, looked up)
chain: MRDIVFVSPQLYLSSQEGWKSDSAKSGFIPILKNDLQRFQDSLKHIVDARNSLSETLLNSNDDGSIHNSDQNTGLNKDKEASIADNNSANKCATSSSRYQELKQFLPISLDQQIHTVSLQGVSSSFSRGQIESLLDHCLNLALTETQSNSALKVEAWSSFSSFLDTQDIFIRFSKVDEDEAFVNTLNYCKALFAFIRKLHEDFKIELHLDLNTKEYVEDRTGTIPSVKPEKASEFYSVFKNIEDQTDERNSKKEQLDDSSTQYKVDTNTLSDLPSDALDQLCKDIIEFRTKVVSIEKEKKMKSTYEESRRQRHQMQKVFDQIRKNHSGAKGSANTEEEDTNMEDEDEEDDTEDDLALEKRKEERDLEESNRRYEDMLHQLHSNTEPKIKSIRADIMSAENYEEHLEKNRSLYLKELLHLANDVHYDHHRSFKEQEERRDEEDRAKNGNAKELAPIQLSDGKAISAGKAAAITLPEGTVKSENYNADKNVSESSEHVKIKFDFKKAIDHSVESSSEDEGYRESELPPTKPSERSAAEDRLPFTADELNIRLTNLKESRYVDELVREFLGVYEDELVEYILENIRVNQSKQALLNELRETFDEDGETIADRLWSRKEFRLGT
B2: Prp40 (in the purified U1 snRNP of the Ubc4 E complex) (natural protein)
chain: MSIWKEAKDASGRIYYYNTLTKKSTWEKPKELISQEELLLRENGWKAAKTADGKVYYYNPTTRETSWTIPAFEKKVEPIAEQKHDTVSHAQVNGNRIALTAGEKQEPGRTINEEESQYANNSKLLNVRRRTKEEAEKEFITMLKENQVDSTWSFSRIISELGTRDPRYWMVDDDPLWKKEMFEKYLSNRSADQLLKEHNETSKFKEAFQKMLQNNSHIKYYTRWPTAKRLIADEPIYKHSVVNEKTKRQTFQDYIDTLIDTQKESKKKLKTQALKELREYLNGIITTSSSETFITWQQLLNHYVFDKSKRYMANRHFKVLTHEDVLNEYLKIVNTIENDLQNKLNELRLRNYTRDRIARDNFKSLLREVPIKIKANTRWSDIYPHIKSDPRFLHMLGRNGSSCLDLFLDFVDEQRMYIFAQRSIAQQTLIDQNFEWNDADSDEITKQNIEKVLENDRKFDKVDKEDISLIVDGLIKQRNEKIQQKLQNERRILEQKKHYFWLLLQRTYTKTGKPKPSTWDLASKELGESLEYKALGDEDNIRRQIFEDFKPESSAPTAESATANLTLTASKKRHLTPAVELDY

Experiments:
Experiment in all cases: cross-linking
BBP/Mud2 dimer = target: T1, BBP/Mud2 dimer (S. cerevisiae, UniProt Q12186 1-476; P36084 1-527)
T1 sequence (looked up) 1: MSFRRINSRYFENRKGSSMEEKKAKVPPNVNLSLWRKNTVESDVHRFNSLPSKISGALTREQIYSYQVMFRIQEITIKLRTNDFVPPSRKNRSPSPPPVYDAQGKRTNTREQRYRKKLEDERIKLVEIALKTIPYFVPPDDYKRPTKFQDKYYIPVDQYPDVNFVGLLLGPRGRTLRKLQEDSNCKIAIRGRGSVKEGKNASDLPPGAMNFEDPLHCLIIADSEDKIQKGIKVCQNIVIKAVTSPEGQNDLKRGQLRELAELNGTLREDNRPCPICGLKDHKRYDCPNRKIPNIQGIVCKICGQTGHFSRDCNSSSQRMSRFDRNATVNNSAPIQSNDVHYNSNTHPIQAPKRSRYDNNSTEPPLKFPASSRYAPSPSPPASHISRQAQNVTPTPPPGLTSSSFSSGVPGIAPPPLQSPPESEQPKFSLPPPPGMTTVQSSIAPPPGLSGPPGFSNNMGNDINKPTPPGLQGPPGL
T1 sequence (looked up) 2: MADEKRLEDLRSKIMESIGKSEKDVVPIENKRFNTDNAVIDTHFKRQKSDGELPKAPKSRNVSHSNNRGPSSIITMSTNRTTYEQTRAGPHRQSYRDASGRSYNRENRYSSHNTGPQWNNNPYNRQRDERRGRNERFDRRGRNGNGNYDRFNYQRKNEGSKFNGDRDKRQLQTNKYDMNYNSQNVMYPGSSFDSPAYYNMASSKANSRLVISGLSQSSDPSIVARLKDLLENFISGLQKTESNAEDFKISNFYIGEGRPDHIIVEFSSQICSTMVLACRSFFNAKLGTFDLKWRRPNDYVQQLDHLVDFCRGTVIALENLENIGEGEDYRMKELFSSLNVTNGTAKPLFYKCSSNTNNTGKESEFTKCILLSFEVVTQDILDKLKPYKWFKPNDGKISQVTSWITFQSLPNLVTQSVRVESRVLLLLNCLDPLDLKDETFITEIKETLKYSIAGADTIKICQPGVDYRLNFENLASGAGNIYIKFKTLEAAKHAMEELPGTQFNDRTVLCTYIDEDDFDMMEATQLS

[1] = target: B2
[2] = target: B1

Binder	binding result (BBP/Mud2 dimer)	binding result [1]	binding result [2]
Snu56 (in the purified U1 snRNP of the Ubc4 E complex) (natural protein, S. cerevisiae) MRPRRRGLAYHHTKPKGQLSQGHYPTTSNDGQRRKVGNSEAFQSFDIWKNLDRIRSTKKNAGQFIKGSLLILPMRTEDKQQFDECMDELHKYISKDILRCYPQKEQKDEGMLFYIVLKDFNILDSCFVLSVLLAFQKRLWMAPSEKSYFRVPKNINLTGSFYLPKNIETGRGHIITSYRREQPSSSIVEVGFNVVPDFQQFQVKACHVSKFMNELSNFFSQVEFGKCEANVINYFKREYNRTYSQISLALYELPLIGDGLFDIKSYISKTRPIIETSKAQMIKHISEMKAYNEISGLQGDQFPRQQRPLSNSPSSNSISSSQTIEAGATSYQTQPQRHAVNKPSNVLNSSNRHSGPKTFEDGRYSEGNKPGFMTQDEIKQHCIGTIKASMDAVKKKSSYQILKTYVRCPRQNYIDIVYQNLNDLRSKTNCNIVVLNLNNLHESQMWLESLNTTNYTIFAQAPHPSTIRVISIGGVGEYIVKALELILNILEH	binds		
U1-70K (in the purified U1 snRNP of the Ubc4 E complex) (natural protein, S. cerevisiae) MNYNLSKYPDDVSRLFKPRPPLSYKRPTDYPYAKRQTNPNITGVANLLSTSLKHYMEEFPEGSPNNHLQRYEDIKLSKIKNAQLLDRRLQNWNPNVDPHIKDTDPYRTIFIGRLPYDLDEIELQKYFVKFGEIEKIRIVKDKITQKSKGYAFIVFKDPISSKMAFKEIGVHRGIQIKDRICIVDIERGRTVKYFKPRRLGGGLGGRGYSNRDSRLPGRFASASTSNPAERNYAPRLPRRETSSSAYSADRYGSSTLDARYRGNRPLLSAATPTAAVTSVYKSRNSRTRESQPAPKEAPDY		binds	
Luc7 (in the purified U1 snRNP of the Ubc4 E complex) (natural protein, S. cerevisiae) MSTMSTPAAEQRKLVEQLMGRDFSFRHNRYSHQKRDLGLHDPKICKSYLVGECPYDLFQGTKQSLGKCPQMHLTKHKIQYEREVKQGKTFPEFEREYLAILSRFVNECNGQISVALQNLKHTAEERMKIQQVTEELDVLDVRIGLMGQEIDSLIRADEVSMGMLQSVKLQELISKRKEVAKRVRNITENVGQSAQQKLQVCEVCGAYLSRLDTDRRLADHFLGKIHLGYVKMREDYDRLMKNNRTTNASKTATTLPGRRFV	binds	binds	
B1	binds		
B2	binds		binds
